Residue numbers refer to the chain shown, from its start.
B1: SEQ30(6) G1:C41 to C:G (ssRNA)
RNA: CGGAUAAAAAUAGAGUUUGAUAAACACCUGUAUUAAAACCG
modifications: as SEQ30(6) [as SEQ30(6) (positions not stated)]
B2: SEQ30(6) A12:U31 to U:A (ssRNA)
RNA: B1 RNA with C1G, A12U, U31A, G41C
modifications: as SEQ30(6) [as SEQ30(6) (positions not stated)]
B3: SEQ30(6) A10:U33 to U:A (ssRNA)
RNA: B1 RNA with C1G, A10U, U33A, G41C
modifications: as SEQ30(6) [as SEQ30(6) (positions not stated)]
B4: SEQ44 aptamer (ssRNA)
RNA: GGGGAACUUCGACCAGAAGUUUGAAAGAAACCCAAAAUUAGCACCAUAAUAUGUGCGCAUACAUGGAUCCUCA
modifications: 2'-F pyrimidines
B5: SEQ68 aptamer (ssRNA)
RNA: GGGAGAACUUCGACCAGAAGUCGAGAGCGAAAGAAACUCCCAAAACACAGUAUGUGCGCAUACAUGGAUCCUCA
modifications: 2'-F pyrimidines
B6: SEQ26 aptamer (ssRNA)
RNA: GGGCUGUGGAGCUGCUUAAACAAGCAAGUGAAAAAAACCACAGCCC
modifications: 2'-F pyrimidines
B7: SEQ90 aptamer (ssRNA)
RNA: GGGAGCCUGUAAACAGCAGGUGAAAAAAACCC
modifications: 2'-F pyrimidines
B8: SEQ88 aptamer (ssRNA)
RNA: GGGAAGCCGUGGAGCUGCGGAUGAAAAAAACCC
modifications: 2'-F pyrimidines
B9: SEQ27 aptamer (ssRNA)
RNA: GGGAAGCCUGUGGAGCUGCAGGAUGAAAAAAACCCAAAAUUAAAU
modifications: 2'-F pyrimidines
B10: SEQ89 aptamer (ssRNA)
RNA: GGGAAGCCUGUAAACAGCAGGAUGAAAAAAACCC
modifications: 2'-F pyrimidines
B11: SEQ34 aptamer (ssRNA)
RNA: GUGGAGCUGUUAAACAACAAGUGAAAAAAACCAC
modifications: 2'-F pyrimidines
B12: SEQ33 aptamer (ssRNA)
RNA: UGUGGAGCUGCUAAACAGCAAGUGAAAAAAACCACA
modifications: 2'-F pyrimidines
B13: SEQ31 aptamer (ssRNA)
RNA: GGGAGCUGCUUAAACAAGCAAGUGAAAAAAACCC
modifications: 2'-F pyrimidines
B14: SEQ36 aptamer (ssRNA)
RNA: GGGAAGCCUGUGGAGCUGCAGGAUGAAAAAAACCC
modifications: 2'-F pyrimidines
B15: SEQ25 aptamer (ssRNA)
RNA: GGAGCUGCCUACACUUUAGUAUGACAAACCUAGAGUGUAAAUGCUUC
modifications: 2'-F pyrimidines
B16: SEQ60 aptamer (ssRNA)
RNA: GGGAGAACUUCGACCAGAGGAUUUGAAAAAAACCCGAAUAAAGAUAACAGUAUGUGCGCAUACAUGGAUCCUCA
modifications: 2'-F pyrimidines
B17: SEQ30(3) (ssRNA)
RNA: B1 RNA with C1G, G41C
modifications: 2'-F all pyrimidines; 2'-OMe at a35,a36
B18: SEQ30(2) (ssRNA)
RNA: B1 RNA with C1G, G41C
modifications: 2'-F all pyrimidines; 2'-OMe at a9,a10
B19: SEQ30(1) (ssRNA)
RNA: B1 RNA with C1G, G41C
modifications: 2'-F all pyrimidines; 2'-OMe at a12,g13,a14,g15,g19,a20,a22,a23,a24,a26; idT at 5' and 3' ends
B20: SEQ32(1) (ssRNA)
RNA: UGUGGAGCUGCUUAAACAAGCAAGUGAAAAAAACCACA
modifications: 2'-F all pyrimidines; 2'-OMe at g10,a14,a15,a16,a18,a19,g20,a22,a23,g24; idT at 5' and 3' ends
B21: SEQ32(2) (ssRNA)
RNA: B20 RNA
modifications: 2'-F all pyrimidines; 2'-OMe at g2,a38
B22: SEQ32(3) (ssRNA)
RNA: B20 RNA
modifications: 2'-F all pyrimidines; 2'-OMe at a30,a31
B23: SEQ35(2) (ssRNA)
RNA: GGGAAGCCUGUGGAGCUGCAGGAUGAAAAAAACCCAAA
modifications: 2'-F all pyrimidines; 2'-OMe at a4,a5,g6,g10,g18,a20,g21,g22,a29,a30,a31,a32; idT at 5' and 3' ends
B24: SEQ35(3) (ssRNA)
RNA: B23 RNA
modifications: 2'-F all pyrimidines; 2'-OMe at a36,a37,a38
B25: SEQ30 aptamer (ssRNA)
RNA: B1 RNA with C1G, G41C
modifications: 2'-F all pyrimidines
B26: SEQ32 aptamer (ssRNA)
RNA: B20 RNA
modifications: 2'-F all pyrimidines
B27: SEQ4 aptamer (ssRNA)
RNA: GGGAAGCCUGUGGAGCUGCAGGAUGAAAAAAACCCAAAUAUGACAAAUAAAACGGCAACGCAUUGUCACCAACAACUGG
modifications: 2'-F all pyrimidines
B28: SEQ12 aptamer (ssRNA)
RNA: GGGAAGCCUGUGGAGCUGCGAAACAGUGAAACAAACCACAGACUGAGAAAGCAGUAACAGCAUUGUCACCAACAACUGG
modifications: 2'-F all pyrimidines
B29: SEQ3 aptamer (ssRNA)
RNA: GGGAAGCCUGUGGAGCUGCAGGAUGAAAAAAACCCAAAAUAAGUAGAAAUGACAGAAUGGCAUUGUCACCAACAACUGG
modifications: 2'-F all pyrimidines
B30: SEQ9 aptamer (ssRNA)
RNA: GGGAAGCCUGUGGAGCUGCUCCACAAGGAUGAAAAAAACCCAAAUAAUAUAUUUAAUCAGCAUUGUCACCAACAACUGG
modifications: 2'-F all pyrimidines
B31: SEQ5 aptamer (ssRNA)
RNA: GGGAAGCCUGUGGAGCUGCUUAAACAAGCAAGUGAAAAAAACCACAGCAAAUGUAAAAAGCAUUGUCACCAACAACUGG
modifications: 2'-F all pyrimidines
B32: SEQ8 aptamer (ssRNA)
RNA: GGGAAGCCUGUGGAGCUGCGGAUAAAAAUAGAGUUUGAUAAACACCUGUAUUAAAACCGCAUUGUCACCAACAACUGG
modifications: 2'-F all pyrimidines
B33: SEQ6 aptamer (ssRNA)
RNA: GGGAAGCCUGUGGAGCUGCAGGAUGAAAAAAACCCAAAAUUAAAUAAAAAAUAGACGGUGCAUUGUCACCAACAACUGG
modifications: 2'-F all pyrimidines
B34: SEQ7 aptamer (ssRNA)
RNA: B33 RNA with A43G
modifications: 2'-F all pyrimidines
B35: SEQ1 aptamer (ssRNA)
RNA: GGGAAGCCUGUGGAGCUGCAGGAUGAAAAAAACCCAAAAACAAAGACAAUGAUUGAGUAGCAUUGUCACCAACAACUGG
modifications: 2'-F all pyrimidines

Biological target: T1, beta-NGF (nerve growth factor) (Homo sapiens, UniProt P01138 P01138:122-241)
Assay: cell_activity; 100 nM aptamer; parent 92.7%
Conditions: tags: R&D Systems human NGF; chain copies: 2
Procedure: (§1) The neurite outgrowth inhibitory activity of aptamer was evaluated by using Neuroscreen-1 cell, which is a subclone of PC-12 cells. 2500 Cells per well were cultured for one day in an RPMI-1640 medium containing 2.5% horse serum and 1.25% fetal bovine serum in a 96 well flat-bottom plate coated with collagen type IV. A mixed solution of NGF (final concentration 15 ng/ml or 1.1 nM) prereacted in a serum-free RPMI-1640 medium at room temperature or 37° C. for 30 min to 1 hr and an aptamer (final concentration 500-3 nM) was added. Two or three days later, the cytoplasm and nuclei were stained using Cellomics Neurite Outgrowth Kits (manufactured by Thermo Scientific), and neurite length per cell was measured by Cellomics ArrayScan VTI (manufactured by Thermo Scientific). With the neurite length per cell obtained by culturing the cell for 2 days with the addition of NGF alone as inhibitory activity 0%, and that of the cell obtained by NGF free culture as inhibitory activity 100%, the inhibitory activity of the aptamer was calculated from the neurite length per cell obtained by culturing with the addition of NGF and the aptamer in mixture. […] When the inhibitory activity was 0% or below, ‘0%’ is indicated. When it was not less than 100%, ‘100%’ is indicated. The 50% inhibitory concentration was determined from the concentrations at two, above and below points sandwiching the 50% inhibitory activity.
Inverted dT is added to the 5′ and 3′ terminals. The activity was evaluated using Neuroscreen-1 cells in the same manner as in Example 8.

T1 sequence (P01138 122-241, one chain of several): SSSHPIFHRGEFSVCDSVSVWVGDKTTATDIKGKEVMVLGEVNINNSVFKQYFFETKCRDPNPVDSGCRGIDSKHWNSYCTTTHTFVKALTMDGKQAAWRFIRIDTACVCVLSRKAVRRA

Row | Binder | activity [% inhibition]
1 | B1 | 92
2 | B2 | 93.1
3 | B3 | 80.8

Biological target: T1, beta-NGF (nerve growth factor)
Assay: SPR; more than 30N; cell IC50 26.1 nM
Conditions: tags: R&D Systems human NGF; chain copies: 2

Row | Binder | binding result
4 | B4 | binds

Biological target: T1, beta-NGF (nerve growth factor)
Assay: cell_activity; Neuroscreen-1 neurite outgrowth, 1.1 nM NGF
Conditions: tags: R&D Systems human NGF; chain copies: 2
Procedure: as §1, with “When it was not less than 100%, ‘100%’ is indicated.” left out

Row | Binder | IC50 [nM]
5 | B5 | 1.9

Biological target: T1, beta-NGF (nerve growth factor)
Assay: SPR; NGF-TrkA and NGF-P75; no PC-12 inhibition
Conditions: tags: R&D Systems human NGF; chain copies: 2
Procedure: (§2) As directed in BIAcore Company's protocol, Protein A (21181, PIERCE) was immobilized on a CM5 sensor chip. About 1100 RU of human Trk A-Fc fused with the Fc portion of IgG (175-TK, R&D systems) was immobilized thereon. As the analyte, a mixture of NGF (0.1 μM) and each aptamer (0.33 μM) was injected after being allowed to stand for 30 minutes. […] When NGF binds stronger to a receptor than an aptamer, the aptamer may be removed and NGF may bind to the receptor. […] Using the binding amount of NGF and NGF receptor without an aptamer as 100, the binding amount of NGF and NGF receptor added with an aptamer was determined as a correction value. Here, the binding amount is the RU value at the peak top of the sensorgram of BIAcore (RU value immediately after completion of NGF injection). […] A similar experiment was performed for another receptor P75 (p75-Fc; R&D systems).

Row | Binder | activity [% inhibition]
6 | B6 | ≥ 60
7 | B7 | ≥ 60
8 | B8 | ≥ 60
9 | B9 | ≥ 60
10 | B10 | ≥ 60
11 | B11 | ≥ 60
12 | B12 | ≥ 60
13 | B13 | ≥ 60
14 | B14 | ≥ 60
15 | B15 | ≥ 60

Biological target: T1, beta-NGF (nerve growth factor)
Assay: SPR; more than 30N; inhibits TrkA and P75 binding
Conditions: tags: R&D Systems human NGF; chain copies: 2
Procedure: as §2

Row | Binder | binding result
16 | B16 | binds

Biological target: T1, beta-NGF (nerve growth factor)
Assay: cell_activity; PC-12 neurite outgrowth, 500 nM aptamer
Conditions: tags: R&D Systems; chain copies: 2
Procedure: The physiological activity of aptamer was evaluated by a neurite outgrowth suppressive experiment using PC-12 cells. PC-12 cell, which is a cell line derived from rat adrenal gland pheochromocytoma, is a model cell of the nervous system, elongates neurite by NGF stimulation, and differentiates like nerve cells. Whether or not an aptamer inhibits the neurite outgrowth was evaluated. PC-12 cells were seeded on a 96 well flat-bottom plate coated with collagen, and a mixed solution of NGF (final concentration 25 ng/ml, or 1.9 nM) prereacted for 1 hr at 37° C. and an aptamer (final concentration 500 nM) was added to start the cell culture. Thereafter, the same amount of the aptamer was added twice every 24 hr and the level of neurite outgrowth was observed and evaluated on day 3 with a microscope. For evaluation, scores 0-3 were used, where score 0 is no neurite outgrowth, score 1 is slight neurite outgrowth, score 2 is neurite outgrowth to the nearby cell, and score 3 is markedly reticulated neurite outgrowth. The system wherein PC-12 cells were cultivated for 3 days with the addition of NGF alone was taken as a negative control, and system capable wherein the cells for 3 days without addition of NGF was taken as a positive control. […] Setting the score of the negative control as inhibitory activity 0%, and the score of the positive control as inhibitory activity 100%, the inhibitory activity (%) of the aptamer was calculated. An inhibitory activity of not less than 50% is shown with +, and that of less than 50% is shown with −.

Row | Binder | activity [% inhibition]
17 | B17 | ≥ 50
18 | B18 | ≥ 50
19 | B19 | ≥ 50
20 | B20 | ≥ 50
21 | B21 | ≥ 50
22 | B22 | ≥ 50
23 | B23 | ≥ 50
24 | B24 | ≥ 50

Biological target: T1, beta-NGF (nerve growth factor)
Assay: SPR; blocks NGF-TrkA and NGF-P75; PC-12 neurite inhibition + (Table 2)
Conditions: tags: R&D Systems; chain copies: 2
Procedure: as §2

Row | Binder | activity [% inhibition]
25 | B25 | ≥ 60
26 | B26 | ≥ 60
27 | B27 | ≥ 60
28 | B28 | ≥ 60
29 | B29 | ≥ 60
30 | B30 | ≥ 60
31 | B31 | ≥ 60
32 | B32 | ≥ 60
33 | B33 | ≥ 60
34 | B34 | ≥ 60
35 | B35 | ≥ 60

From patent US20110251266, “APTAMER FOR NGF AND USE THEREOF” (Shionogi & Co., Ltd., published 2011)
